Data on 29 molecules can be found in patent US20260167699A1 (Chugai, published 2026).

The assay has as its target T1, FcγRIIIa (human, UniProt P08637 17-208).
T1 construct: extracellular domain; also called 3a; FcγRIIIa extracellular domain
Kind of assay: SPR (Biacore).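 Note: antibody variants captured on an SPR sensor chip, with FcγRIIIa passed over as analyte in HBS-EP+ buffer at 25 °C.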 A general note: SPR reads the build-up and loss of mass on a sensor chip optically.

T1 sequence (P08637 other isoform, or with tags, fused parts or gaps): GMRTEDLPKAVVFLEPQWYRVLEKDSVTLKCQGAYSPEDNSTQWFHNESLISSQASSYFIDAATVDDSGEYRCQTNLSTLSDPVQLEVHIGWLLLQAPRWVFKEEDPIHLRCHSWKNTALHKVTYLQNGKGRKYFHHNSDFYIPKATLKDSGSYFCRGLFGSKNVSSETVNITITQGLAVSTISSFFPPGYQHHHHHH

B1: GpH7-A5/GpH7-B3 variant E333_02A/GpL16-k0 (antibody, human IgG1, kappa)
heavy 1: not shown
heavy 2: not shown
light: DIVMTQSPLSLPVTPGEPASISCQASESLVHSNRNTYLHWYLQKPGQSPQLLIYKVSNRFSGVPDRFSGSGSGTDFTLKISRVEAEDVGVYYCSQNTHVPPTFGQGTKVEIERTVAAPSVFIFPPSDEQLKSGTASVVCLLNNFYPREAKVQWKVDNALQSGNSQESVTEQDSKDSTYSLSSTLTLSKADYEKHKVYACEVTHQGLSSPVTKSFNRGEC
notes: copies: 1 + 1 + 2
On to B1, for which the “He/Con 3a” value was 108 % of GpH7-A5/GpH7-B3/GpL16-k0.

B2: GpH7-A5/GpH7-B3 variant A330_06M/GpL16-k0 (antibody, human IgG1, kappa)
heavy 1: not shown
heavy 2: not shown
light: B1 light
notes: copies: 1 + 1 + 2
B2: the “He/Con 3a” value is 139 % of GpH7-A5/GpH7-B3/GpL16-k0.

B3: GpH7-A5/GpH7-B3 variant A330_04F/GpL16-k0 (antibody, human IgG1, kappa)
heavy 1: not shown
heavy 2: not shown
light: B1 light
notes: copies: 1 + 1 + 2
Turning to B3, the “He/Con 3a” value is 144 % of GpH7-A5/GpH7-B3/GpL16-k0.

B4: GpH7-A5/GpH7-B3 variant A330_01G/GpL16-k0 (antibody, human IgG1, kappa)
heavy 1: not shown
heavy 2: not shown
light: B1 light
notes: copies: 1 + 1 + 2
In the case of B4, the “He/Con 3a” value is 87.3 % of GpH7-A5/GpH7-B3/GpL16-k0.

B5: GpH7-A5/GpH7-B3 variant A327_10E/GpL16-k0 (antibody, human IgG1, kappa)
heavy 1: not shown
heavy 2: not shown
light: B1 light
notes: copies: 1 + 1 + 2
Regarding B5, the “He/Con 3a” value is 70.5 % of GpH7-A5/GpH7-B3/GpL16-k0.

B6: GpH7-A5/GpH7-B3 variant A327_20W/GpL16-k0 (antibody, human IgG1, kappa)
heavy 1: not shown
heavy 2: not shown
light: B1 light
notes: copies: 1 + 1 + 2
For the molecule B6, the “He/Con 3a” value was 52.6 % of GpH7-A5/GpH7-B3/GpL16-k0.

B7: GpH7-A5/GpH7-B3 variant D270_18N/GpL16-k0 (antibody, human IgG1, kappa)
heavy 1: not shown
heavy 2: not shown
light: B1 light
notes: copies: 1 + 1 + 2
As to B7, the “He/Con 3a” value was 51.2 % of GpH7-A5/GpH7-B3/GpL16-k0.

B8: GpH7-A5/GpH7-B3 variant E269_18N/GpL16-k0 (antibody, human IgG1, kappa)
heavy 1: not shown
heavy 2: not shown
light: B1 light
notes: copies: 1 + 1 + 2
As to B8, the “He/Con 3a” value is 57.2 % of GpH7-A5/GpH7-B3/GpL16-k0.

B9: GpH7-A5/GpH7-B3 variant A330_16H/GpL16-k0 (antibody, human IgG1, kappa)
heavy 1: not shown
heavy 2: not shown
light: B1 light
notes: copies: 1 + 1 + 2
For the molecule B9, the “He/Con 3a” value is 102 % of GpH7-A5/GpH7-B3/GpL16-k0.

B10: GpH7-A5/GpH7-B3 variant A330_11K/GpL16-k0 (antibody, human IgG1, kappa)
heavy 1: not shown
heavy 2: not shown
light: B1 light
notes: copies: 1 + 1 + 2
Take B10: the “He/Con 3a” value was 91.8 % of GpH7-A5/GpH7-B3/GpL16-k0.

B11: GpH7-A5/GpH7-B3 variant A327_09D/GpL16-k0 (antibody, human IgG1, kappa)
heavy 1: not shown
heavy 2: not shown
light: B1 light
notes: copies: 1 + 1 + 2
On to B11, for which the “He/Con 3a” value was 86 % of GpH7-A5/GpH7-B3/GpL16-k0.

B12: GpH7-A5/GpH7-B3 variant A330_03V/GpL16-k0 (antibody, human IgG1, kappa)
heavy 1: not shown
heavy 2: not shown
light: B1 light
notes: copies: 1 + 1 + 2
B12: the “He/Con 3a” value is 98.8 % of GpH7-A5/GpH7-B3/GpL16-k0.

B13: GpH7-A5/GpH7-B3 variant D270_07I/GpL16-k0 (antibody, human IgG1, kappa)
heavy 1: not shown
heavy 2: not shown
light: B1 light
notes: copies: 1 + 1 + 2
In the case of B13, the “He/Con 3a” value is 63.1 % of GpH7-A5/GpH7-B3/GpL16-k0.

B14: GpH7-A5/GpH7-B3 variant A330_10E/GpL16-k0 (antibody, human IgG1, kappa)
heavy 1: not shown
heavy 2: not shown
light: B1 light
notes: copies: 1 + 1 + 2
On to B14, for which the “He/Con 3a” value was 82.8 % of GpH7-A5/GpH7-B3/GpL16-k0.

B15: GpH7-A5/GpH7-B3 variant A330_18N/GpL16-k0 (antibody, human IgG1, kappa)
heavy 1: not shown
heavy 2: not shown
light: B1 light
notes: copies: 1 + 1 + 2
As to B15, the “He/Con 3a” value was 67.3 % of GpH7-A5/GpH7-B3/GpL16-k0.

B16: GpH7-A5/GpH7-B3 variant A330_19Q/GpL16-k0 (antibody, human IgG1, kappa)
heavy 1: not shown
heavy 2: not shown
light: B1 light
notes: copies: 1 + 1 + 2
On to B16, for which the “He/Con 3a” value is 86.3 % of GpH7-A5/GpH7-B3/GpL16-k0.

B17: GpH7-A5/GpH7-B3 variant E269_08L/GpL16-k0 (antibody, human IgG1, kappa)
heavy 1: not shown
heavy 2: not shown
light: B1 light
notes: copies: 1 + 1 + 2
As for B17, the “He/Con 3a” value was 51.5 % of GpH7-A5/GpH7-B3/GpL16-k0.

B18: GpH7-A5/GpH7-B3 variant E269_19Q/GpL16-k0 (antibody, human IgG1, kappa)
heavy 1: not shown
heavy 2: not shown
light: B1 light
notes: copies: 1 + 1 + 2
On to B18, for which the “He/Con 3a” value is 64.3 % of GpH7-A5/GpH7-B3/GpL16-k0.

B19: GpH7-A5/GpH7-B3 variant E269_09D/GpL16-k0 (antibody, human IgG1, kappa)
heavy 1: not shown
heavy 2: not shown
light: B1 light
notes: copies: 1 + 1 + 2
As for B19, the “He/Con 3a” value was 106 % of GpH7-A5/GpH7-B3/GpL16-k0.

B20: GpH7-A5/GpH7-B3 variant E269_01G/GpL16-k0 (antibody, human IgG1, kappa)
heavy 1: not shown
heavy 2: not shown
light: B1 light
notes: copies: 1 + 1 + 2
Take B20: the “He/Con 3a” value was 61.6 % of GpH7-A5/GpH7-B3/GpL16-k0.

B21: GpH7-A5/GpH7-B3 variant A330_12R/GpL16-k0 (antibody, human IgG1, kappa)
heavy 1: not shown
heavy 2: not shown
light: B1 light
notes: copies: 1 + 1 + 2
Take B21: the “He/Con 3a” value is 77.3 % of GpH7-A5/GpH7-B3/GpL16-k0.

B22: GpH7-A5/GpH7-B3 variant E269_06M/GpL16-k0 (antibody, human IgG1, kappa)
heavy 1: not shown
heavy 2: not shown
light: B1 light
notes: copies: 1 + 1 + 2
For B22, the “He/Con 3a” value was 57.9 % of GpH7-A5/GpH7-B3/GpL16-k0.

B23: GpH7-A5/GpH7-B3 variant E333_03V/GpL16-k0 (antibody, human IgG1, kappa)
heavy 1: not shown
heavy 2: not shown
light: B1 light
notes: copies: 1 + 1 + 2
In the case of B23, the “He/Con 3a” value is 106 % of GpH7-A5/GpH7-B3/GpL16-k0.

B24: GpH7-A5/GpH7-B3 variant E269_02A/GpL16-k0 (antibody, human IgG1, kappa)
heavy 1: not shown
heavy 2: not shown
light: B1 light
notes: copies: 1 + 1 + 2
In the case of B24, the “He/Con 3a” value is 68 % of GpH7-A5/GpH7-B3/GpL16-k0.

B25: GpH7-A5/GpH7-B3 variant D270_08L/GpL16-k0 (antibody, human IgG1, kappa)
heavy 1: not shown
heavy 2: not shown
light: B1 light
notes: copies: 1 + 1 + 2
For the molecule B25, the “He/Con 3a” value is 65.1 % of GpH7-A5/GpH7-B3/GpL16-k0.

B26: GpH7-A5/GpH7-B3 variant A327_01G/GpL16-k0 (antibody, human IgG1, kappa)
heavy 1: not shown
heavy 2: not shown
light: B1 light
notes: copies: 1 + 1 + 2
Take B26: the “He/Con 3a” value was 74.4 % of GpH7-A5/GpH7-B3/GpL16-k0.

B27: GpH7-A5/GpH7-B3 variant A330_05P/GpL16-k0 (antibody, human IgG1, kappa)
heavy 1: not shown
heavy 2: not shown
light: B1 light
notes: copies: 1 + 1 + 2
As for B27, the “He/Con 3a” value is 152 % of GpH7-A5/GpH7-B3/GpL16-k0.

B28: GpH7-A5/GpH7-B3 variant E333_05P/GpL16-k0 (antibody, human IgG1, kappa)
heavy 1: not shown
heavy 2: not shown
light: B1 light
notes: copies: 1 + 1 + 2
On to B28, for which the “He/Con 3a” value is 100 % of GpH7-A5/GpH7-B3/GpL16-k0.

B29: GpH7-A5/GpH7-B3 variant A327_19Q/GpL16-k0 (antibody, human IgG1, kappa)
heavy 1: not shown
heavy 2: not shown
light: B1 light
notes: copies: 1 + 1 + 2
Regarding B29, the “He/Con 3a” value was 54 % of GpH7-A5/GpH7-B3/GpL16-k0.
